This note sets out measurements from article doi:10.1101/2021.12.25.474155.

Like-named read-outs stand apart in the source and are kept apart here.

Data set [1] concerns the target T1, NCAP (SARS-CoV-2, UniProt P0DTC9). As to the kind of experiment: competition.
Data set [2] concerns the target T1, NCAP. The experiment in a line: competition. This is another data set of the same source.
The target in data set [3] is T1, NCAP. As to the kind of experiment: EMSA.
Data set [4] addresses T1, NCAP. As to the kind of experiment: EMSA. The source holds these as a separate data set.
The target in data set [5] is T2, N-RBD (SARS-CoV-2, UniProt P0DTC9). The experiment in a line: EMSA. In general terms: A gel shift assay detects complexes by their altered migration in electrophoresis.
The target in data set [6] is T3, DD-C (SARS-CoV-2, UniProt P0DTC9). The experiment in a line: EMSA.
In data set [7] the target is T4, LCD (SARS-CoV-2, UniProt P0DTC9). As to the kind of experiment: EMSA.
Data set [8] concerns the target T1, NCAP. As to the kind of experiment: EMSA. This is another data set of the same source.
Data set [9] deals with T1, NCAP. The experiment in a line: EMSA. The source holds these as a separate data set.
In data set [10] the target is T3, DD-C. The experiment in a line: EMSA. The source holds these as a separate data set.
For data set [11], the target named is T2, N-RBD. The experiment in a line: EMSA. This is another data set of the same source.
In data set [12] the target is T4, LCD. As to the kind of experiment: EMSA. This is another data set of the same source.

B1: S1.5hp (structured_RNA)
RNA: GGAUCUCUUGUAGAUCUGUUCUCUAAACGAACUUUAAAAUCUGUGUGGCUGUCACUCGGCUGCAUGCUUAGUGCACUCACGCAG
Regarding B1, the binding result with NCAP [1] is on record as “binds”.

B2: siDGCR8-1 duplex (dsRNA)
RNA 1: CAUCGGACAAGAGUGUGAUUU
RNA 2: AUCACACUCUUGUCCGAUGUU
modifications: 5'-phosphate on both strands
Regarding B2, the binding result with NCAP [2] is listed as “binds”.

B3: S8hp (structured_RNA)
RNA: GGAAGGAGCUGGUGGCCAUAGUUACGGCGCCGAUCUAAAGUCAUUUGACUUAGGCGACGAGCUUGGCACUGAUCCUUAUGAAGAUUUUCAAGAAAACUGGAACACUAAACAUAGCAGUGGUGUUACCCGUGAACUCAUGCGUGAGCUUAACGGAGGGGCAUACACUCGCUAUGU
Take B3: the binding result in the data set with NCAP [2] is reported as “binds”.

B4: SL5 (structured_RNA)
RNA: GGUCGUUGACAGGACACGAGUAACUCGUCUAUCUUCUGCAGGCUGCUUACGGUUUCGUCCGUGUUGCAGCCGAUCAUCAGCACAUCUAGGUUUCGUCCGGGUGUGACCGAAAGGUAAGAUGGAGAGCCUUGUCCCUGGUUUCAACGA
On to B4, for which the Kd with NCAP [3] stood at 1250 ± 130 nM; in the data set with NCAP [4], 166 ± 36 nM.

B5: S2hp (structured_RNA)
RNA: GGCUGUGUGGCUGUCACUCGGCUGCAUGCUUAGUGCACUCACGCAGUAUAAUUAAUAACUAAUUACUGUCGUUGACAGGACACGAGUAACUCGUCUAUCUUCUGCAGGCUGCUUACGGUUUCGUCCGUGUUGCAGCCGAUCAUCAGCACAUCUAGGUUUCGUCCGGGUGUGACCGAAAGGUAAGAUGGAGAGCCUUGUCCCUGGUUUCAACGA
B5: the Kd with N-RBD [5] was approximately 354 nM; with DD-C [6], approximately 707 nM; in the data set with LCD [7], approximately 1410 nM; with NCAP [3], 312 ± 39 nM; with NCAP [4] it was 173 ± 14 nM.

B6: F257 (structured_RNA)
RNA: GGUCGUUGACAGGACACGAGUAACUCGUCUAUCUUCUGCAGGCUGCUUACGGUUUCGUCCGUGUUGCAGCCGAUCAUCAGCACAUCUAGGUUUCGUCCGGGUGUGACCGAAAGGUAAGAUGGAGAGCCUUGUCCCUGGUUUCAACGAGAAAACACACGUCCAACUCAGUUUGCCUGUUUUACAGGUUCGCGACGUGCUCGUACGUGGCUUUGGAGACUCCGUGGAGGAGGUCUUAUCAGAGGCACGUCAACAUCUUAAA
For B6, binding in the data set with NCAP [4] was put at a Kd of 23 ± 5 nM.

B7: F127 (structured_RNA)
RNA: GGAUUAAAGGUUUAUACCUUCCCAGGUAACAAACCAACCAACUUUCGAUCUCUUGUAGAUCUGUUCUCUAAACGAACUUUAAAAUCUGUGUGGCUGUCACUCGGCUGCAUGCUUAGUGCACUCACGCAG
For the molecule B7, in the data set with NCAP [4], binding was characterised by a dissociation constant (Kd) of 183 ± 56 nM.
For GGCUGUGUGGCUGUCACUCGGCUGCAUGCUUAGUGCACUCACGCAG (structured_RNA) [SL4], the Kd with NCAP [8] worked out at 356 ± 43 nM; with NCAP [9], 4800 ± 200 nM.
For GGCUGUGUGGCUGUCACUCGGCUGCAUGCUUAGUGCACUCACGCAG (structured_RNA) [SL4 hairpin], the Kd with NCAP [3] amounted to 8600 ± 1000 nM; with NCAP [4], 569 ± 67 nM.
As to UAUAAUUAAUAACUAAUUACUG (ssRNA) [S2], the binding result with DD-C [10], in the data set with N-RBD [11] and in the data set with LCD [12] was “no binding” each time. For the same molecule, the Kd in the data set with NCAP [4] was 216 ± 23 nM.
With AUCACACUCUUGUCCGAUGUU (ssRNA, 5'-phosphate) [siDGCR8-1 antisense], the binding result in the data set with NCAP [2] is “no binding”.

B8: F294 (structured_RNA)
RNA: GGAUUAAAGGUUUAUACCUUCCCAGGUAACAAACCAACCAACUUUCGAUCUCUUGUAGAUCUGUUCUCUAAACGAACUUUAAAAUCUGUGUGGCUGUCACUCGGCUGCAUGCUUAGUGCACUCACGCAGUAUAAUUAAUAACUAAUUACUGUCGUUGACAGGACACGAGUAACUCGUCUAUCUUCUGCAGGCUGCUUACGGUUUCGUCCGUGUUGCAGCCGAUCAUCAGCACAUCUAGGUUUCGUCCGGGUGUGACCGAAAGGUAAGAUGGAGAGCCUUGUCCCUGGUUUCAACGA
B8: the Kd with NCAP [4] turned out to be 26 ± 10 nM.

B9: S1hp (structured_RNA)
RNA: GGUUUAUACCUUCCCAGGUAACAAACCAACCAACUUUCGAUCUCUUGUAGAUC
Consider B9, for which, in the data set with NCAP [1], the binding result is “binds”.

B10: Tet3-9 (structured_RNA)
RNA: GGACCGUCAAAUUGCGGGAAAGGGGUCAACAGCCGUUCAGUACCAAGUCUCAGGGGAAACUUUGAGAUGGCCUUGCAAAGGGUAUGGUAAUAAGCUGACGGACAUGGUCCUAACCACGCAGCCAAGUCCUAAGUCAACAGGAGACUGUUGAUAUGGAUGCAGUUCACAGACUAAAUGUCGGUCGGGGAAGAUGUAUUCUUCUCAUAAGAUAUAGUCGGACCUCUCCCGAAAGGGAGUUGGAGUACUCGAAAUUCGUUUGGAGGGCUGCAGGGCCCUCUAGA
With B10, the binding result with NCAP [2] is “binds”.

As usually defined, the Kd is the constant that tells how readily two partners part at equilibrium. Lower therefore signals a tighter complex.
